Reference: publication PMC3764444, “Involvement of A20 in the molecular switch that activates the non-canonical NF-кB pathway” (Scientific Reports, 2013)

Molecular target: T1, recombinant cIAP1 protein (human, UniProt Q13490 1-618)
T1 construct: the whole cIAP1, human cDNA; cloned in pGEX-6P-1; also called released from GST-cIAP1 (GST-cIAP); source: E. coli DH5α, purified (Glutathione Sepharose 4B), released from the beads with 3C protease (Turbo3C)
Assay: pull-down; GST pull-down: 2 μg polyubiquitin chains or 0.5 μg cIAP1 with 0.5 μg GST or GST-ZnF5-7 proteins and Glutathione Sepharose 4B in TNE buffer (20 mM Tris-HCl pH 7.5, 130 mM NaCl, 1% Triton X-100, 1 mM EDTA) with 0.5 mM DTT and 0.1 mg/ml BSA, 3 hr; immunoblot
Details: both partners purified

T1 sequence (Q13490 whole entry): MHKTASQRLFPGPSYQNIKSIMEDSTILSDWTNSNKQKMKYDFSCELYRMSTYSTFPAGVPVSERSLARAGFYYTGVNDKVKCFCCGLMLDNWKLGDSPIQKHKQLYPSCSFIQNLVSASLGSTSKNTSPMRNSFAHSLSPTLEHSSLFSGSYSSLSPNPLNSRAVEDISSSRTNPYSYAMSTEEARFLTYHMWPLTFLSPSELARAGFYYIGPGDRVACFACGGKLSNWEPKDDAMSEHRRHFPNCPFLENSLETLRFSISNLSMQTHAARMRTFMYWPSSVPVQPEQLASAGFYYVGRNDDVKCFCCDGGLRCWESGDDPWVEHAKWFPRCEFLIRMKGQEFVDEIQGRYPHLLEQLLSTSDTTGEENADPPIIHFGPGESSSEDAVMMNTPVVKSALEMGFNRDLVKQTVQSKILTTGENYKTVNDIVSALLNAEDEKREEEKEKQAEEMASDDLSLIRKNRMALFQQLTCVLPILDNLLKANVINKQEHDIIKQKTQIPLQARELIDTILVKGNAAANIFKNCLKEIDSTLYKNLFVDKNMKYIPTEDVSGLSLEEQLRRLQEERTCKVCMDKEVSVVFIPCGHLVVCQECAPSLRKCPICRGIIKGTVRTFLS

B1: GST-A20-ZnF5-7 (domain or fragment, human, UniProt P21580 647-790, looked up)
chain: TASRFQNTIPCLGRECGTLGSTMFEGYCQKCFIEAQNQRFHEAKRTEEQLRSSQRRDVPRTTQSTSRPKCARASCKNILACRSEELCMECQHPNQRMGPGAHRGEPAPEDPPKQRCRAPACDHFGNAKCNGYCNECFQFKQMYG
notes: A20, human, fragment aa 647-790 encompassing ZnF5 to ZnF7; cloned in pGEX-6P-1; also called GST-ZnF5-7; source: E. coli DH5α, purified (Glutathione Sepharose 4B), dialyzed with PBS
B1: binds.
